Experimental data: patent publication US20190169289A1 (Scripps Research, published 2019)
Like-named read-outs stand apart in the source and are kept apart here. Ends that are not written are not given here.

Assays:
[1] = target: T1, anti-GCN4 (52SR4 scFv) sCAR with CD8 hinge; test: flow cytometry on CD8 sCAR-T cells, switch 30 min at 4 C, detected with PE-conjugated goat anti-human kappa chain antibody, MFI
T1 construct: 273 is the protein without leader; also called sCAR (long); CD8 sCAR
Source text: Cells were washed two times and analyzed using the Accuri flow cytometer (BD).

[2] = target: T1, anti-GCN4 (52SR4 scFv) sCAR with CD8 …; test: flow cytometry on sCAR-T cells
anti-Her2-FLAG switch = test: ELISA, absorbance at 375nm, of anti-FLAG antibody 5B3 on the anti-Her2-FLAG switch; the text gives the same value as an apparent affinity of 2.2×10^-10 M
[3] = target: T1, anti-GCN4 (52SR4 scFv) sCAR with CD8 …; test: flow cytometry of CD8 sCAR T cells stained with AF488-conjugated PNE; filled histogram against a dashed control histogram
[4] = target: T2, anti-GCN4 (52SR4 scFv) sCAR with IgG4m hinge; test: flow cytometry competition on CAR-T cells with the GCN4 CAR (SEQ ID NO. 74): 1 nM labelled GCN4 peptide (GCN4-AF488) as competitor, unlabelled peptide titrated, MFI of the labelled peptide read
T2 construct: disulfide dimer by western blot; also called short-dimeric sCAR; IgG4m sCAR
T2 chain: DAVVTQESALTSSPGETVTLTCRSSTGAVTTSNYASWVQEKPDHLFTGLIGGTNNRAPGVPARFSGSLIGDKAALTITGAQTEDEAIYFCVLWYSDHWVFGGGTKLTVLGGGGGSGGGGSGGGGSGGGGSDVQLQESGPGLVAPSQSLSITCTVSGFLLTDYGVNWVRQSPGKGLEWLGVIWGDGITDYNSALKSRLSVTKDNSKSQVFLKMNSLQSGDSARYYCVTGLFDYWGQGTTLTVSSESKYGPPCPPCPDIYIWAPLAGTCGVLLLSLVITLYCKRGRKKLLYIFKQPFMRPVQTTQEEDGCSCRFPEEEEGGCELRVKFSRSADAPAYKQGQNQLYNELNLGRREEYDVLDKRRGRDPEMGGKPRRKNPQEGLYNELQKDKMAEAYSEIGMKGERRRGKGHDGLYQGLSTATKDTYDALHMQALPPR
Source text: Un-labelled peptide binding efficiency was indirectly shown by measuring the mean fluorescence intensity (MFI) staining with the labelled peptide.
Cells were then washed twice with cold PBS to remove the free labelled peptide before being analyzed using the BD Accuri flow cytometer.

CD22 [5] = target: T3, CD22 (UniProt P20273 20-847, limits assumed); test: cell-based or functional assay
CD22 [6] = target: T3, CD22; test: cell-based or functional assay; remark: listed apart in the source
CD22 [7] = target: T3, CD22; test: cell-based or functional assay; remark: listed apart in the source
CD22 [8] = target: T3, CD22; test: cell-based or functional assay; remark: listed apart in the source
CD22 [9] = target: T3, CD22; test: cell-based or functional assay; remark: listed apart in the source
CD22 [10] = target: T3, CD22; test: cell-based or functional assay; remark: listed apart in the source

B1: anti-CD19 (FMC63) Fab LCNT switch (Fab, V domains shown)
VH: EVKLQESGPGLVAPSQSLSVTCTVSGVSLPDYGVSWIRQPPRKGLEWLGVIWGSETTYYNSALKSRLTIIKDNSKSQVFLKMNSLQTDDTAIYYCAKHYYYGGSYAMDYWGQGTSVTVSS
VL: DIQMTQTTSSLSASLGDRVTISCRASQDISKYLNWYQQKPDGTVKLLIYHTSRLHSGVPSRFSGSGSGTDYSLTISNLEQEDIATYFCQQGNTLPYTFGGGTKLEIKR
notes: also called LCNT Fab
- EC50 (read off the curve) [1]: ~2 nM

B2: anti-CD19 (FMC63) IgG LCC1 switch (antibody)
light: DIQMTQTTSSLSASLGDRVTISCRASQDISKYLNWYQQKPDGTVKLLIYHTSRLHSGVPSRFSGSGSGTDYSLTISNLEQEDIATYFCQQGNTLPYTFGGGTKLEIKRTVAAPSVFIFPPSDEQLKSGTASVVCLLNNFYPREAKVQWKVDNALQSGNSQESVTEQDSGGGGSNYHLENEVARLKKLGGGGSDSTYSLSSTLTLSKADYEKHKVYACEVTHQGLSSPVTKSFNRGEC
heavy: EVKLQESGPGLVAPSQSLSVTCTVSGVSLPDYGVSWIRQPPRKGLEWLGVIWGSETTYYNSALKSRLTIIKDNSKSQVFLKMNSLQTDDTAIYYCAKHYYYGGSYAMDYWGQGTSVTVSSASTKGPSVFPLAPSSKSTSGGTAALGCLVKDYFPEPVTVSWNSGALTSGVHTFPAVLQSSGLYSLSSVVTVPSSSLGTQTYICNVNHKPSNTKVDKKVEPKSCDKTHTCPPCPAPPVAGPSVFLFPPKPKDTLMISRTPEVTCVVVDVSHEDPEVKFNWYVDGVEVHNAKTKPREEQYNSTYRVVSVLTVLHQDWLNGKEYKCKVSNKGLPSSIEKTISKAKGQPREPQVYTLPPSRDELTKNQVSLTCLVKGFYPSDIAVEWESNGQPENNYKTTPPVLDSDGSFFLYSKLTVDKSRWQQGNVFSCSVMHEALHNHYTQKSLSLSPGK
notes: also called LCC1 IgG; IgG (FcNull) switch
- binding result [2]: binds

B3: anti-FLAG monoclonal antibody (clone: 5B3) (antibody, V domains shown)
VH: EVQLQQSGAELVKPGASVKLSCTASGFNIKDYYMHWVKQRTEQGLEWIGRIDPEDGETKYAPKFQGKATITADTSSKTAYLQLSSLTSEDTAVYYCARLKGGYWGQGTTLTVSS
VL: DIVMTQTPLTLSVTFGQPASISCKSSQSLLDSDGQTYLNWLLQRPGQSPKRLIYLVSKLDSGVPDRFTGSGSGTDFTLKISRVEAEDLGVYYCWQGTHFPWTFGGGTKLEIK
notes: Mouse hybridoma antibody
- EC50 (anti-Her2-FLAG switch): 0.22 nM

Binder: NYHLENEVARLKKL (not fully specified, also called PNE) [yeast transcription factor GCN4 minimal binding peptide NYHLENEVARLKKL]
- binding result [3]: binds
- binding result [4]: binds

B4: anti-CD22 (clone hLL2) Fab CTBV switch (Fab)
light: DIQLTQSPSSLSASVGDRVTMSCKSSQSVLYSANHKNYLAWYQQKPGKAPKLLIYWASTRESGVPSRFSGSGSGTDFTFTISSLQPEDIATYYCHQYLSSWTFGGGTKLEIKRTVAAPSVFIFPPSDEQLKSGTASVVCLLNNFYPREAKVQWKVDNALQSGNSQESVTEQDSKDSTYSLSSTLTLSKADYEKHKVYACEVTHQGLSSPVTKSFNRGECGGGGSNYHLENEVARLKKL
heavy: QVQLVQSGAEVKKPGSSVKVSCKASGYTFTSYWLHWVRQAPGQGLEWIGYINPRNDYTEYNQNFKDKATITADESTNTAYMELSSLRSEDTAFYFCARRDITTFYWGQGTTVTVSSARTKGPSVFPLAPSSKSTSGGTAALGCLVKDYFPEPVTVSWNSGALTSGVHTFPAVLQSSGLYSLSSVVTVPSSSLGTQTYICNVNHKPSNTKVDKKVEPKSCGGGGSNYHLENEVARLKKL
- EC50 of cytotoxicity (CD22 [5]): 0.0555 nM
- cytotoxicity at 0.01 pM (CD22 [6]): 1.34
- cytotoxicity at 0.1 pM (CD22 [6]): 0.18
- cytotoxicity at 1 pM (CD22 [6]): 1.38
- cytotoxicity at 10 pM (CD22 [6]): 4.1
- cytotoxicity at 100 pM (CD22 [6]): 28.2
- cytotoxicity at 1000 pM (CD22 [6]): 46.9
- cytotoxicity at 10000 pM (CD22 [6]): 44.2
- EC50 of cytotoxicity (CD22 [7]): 0.0691 nM
- cytotoxicity at 0.06 pM (CD22 [8]): -3.84
- cytotoxicity at 0.30 pM (CD22 [8]): -0.28
- cytotoxicity at 1.52 pM (CD22 [8]): -4.59
- cytotoxicity at 7.62 pM (CD22 [8]): 0.02
- cytotoxicity at 38.10 pM (CD22 [8]): 6.77
- cytotoxicity at 952.40 pM (CD22 [8]): 21.7
- cytotoxicity at 4762.00 pM (CD22 [8]): 24.3
- EC50 of cytotoxicity (CD22 [9]): 0.0288 nM
- cytotoxicity at 0.01 pM (CD22 [10]): 4.6
- cytotoxicity at 0.1 pM (CD22 [10]): 3.6
- cytotoxicity at 10 pM (CD22 [10]): 10.4
- cytotoxicity at 100 pM (CD22 [10]): 42.2
- cytotoxicity at 1000 pM (CD22 [10]): 47.4
- cytotoxicity at 10000 pM (CD22 [10]): 44.9
